Results taken from patent US20170174789A1 (Regeneron, published 2017).

How the values were obtained:
hTie2-His = molecular target: T1, hTie2-His (human, UniProt Q02763 23-745); test: blocking ELISA: antibody premixed with 0.8 nM biotin-hTie2-His, binding to plate-coated Bow-Ang2
T1 construct: also called ecto-Tie2 fused to 6xHis; biotin-Tie2-His
Experimental: Tie2 is known to interact with angiopoietins (Ang1, Ang2, Ang3 and Ang4). An initial set of experiments was therefore conducted to evaluate the ability of anti-Tie2 antibodies to block Tie2 binding to Ang2. In this first set of experiments, a quantitative blocking immunoassay was utilized. Briefly, solutions of 0.8 nM biotinylated ecto-Tie2 fused to 6×His (SEQ ID NO:2) were premixed with anti-Tie2 antibody ranging from ˜50 nM to 0 nM in serial dilutions. After a 1-hour incubation at room temperature, the amount of Tie2-His bound to plate coated Bow-Ang2 was measured by sandwich ELISA. Bow-Ang2 (SEQ ID NO:13), an Ang2 construct that comprises the Fc domain of hIgG1 flanked by one FD domain of Ang2 at both termini, was coated at 2 μg/ml on a 96 well microtiter plate and blocked with BSA. Plate-bound biotin-Tie2-His was detected using HRP conjugated streptavidin, and developed using BD OptEIA™ (BD Biosciences Pharmingen, San Diego, Calif.). Signals of OD₄₅₀ nm were recorded and data was analyzed using GraphPad Prism to calculate IC₅₀ values. IC₅₀s were defined as the amount of antibody required to reduce 50% of biotin-Tie2-His detectable to plate bound Bow-Ang2 ligand. In Table 9, an antibody is designated an “enhancer” if the addition of the antibody increases the amount of Tie2-His bound to the Bow-Ang2-coated surface relative to the no antibody control.

[1] = molecular target: hTie2 on 293-Tie2/SRE-Luc cells (human, UniProt Q02763 23-1124); test: cell-based or functional assay

Binder | IC50 (hTie2-His) [nM] | EC50, Tie2 dependent luciferase activity, 293-Tie2/SRE-Luc cells with 1 nM BowAng1 [1] [nM] | EC50, Tie2 dependent luciferase activity, 293-Tie2/SRE-Luc cells with 1 nM BowAng2 [1] [nM]
H1H2339B (antibody, V domains shown, Tested as H1H2339B (human IgG format, H1H prefix)) VH: EVQLVESGGGLVQPGGSLRLSCAASGFTFSSYAMNWVRQAPGKGLEWVSSISGSGGNTYYADSVKGRFTISRDNSKNTLYLQLNSLRAEDTAVYYCAKDHSLSWYRNVFDIWGQGTMVTVSS VL: not shown | 0.189 | 10.3 | 13
H1H2340B (antibody, V domains shown, Tested as H1H2340B (human IgG format, H1H prefix); also called HIH2340B) VH: EVQLVESGGGLVQPGGSLRLSCAASGFTFSRYWMSWVRQAPGMGLEWVANIKQDGSEKNYVDSVKGRFTVSRDNAKNSLYLQMNSLRAEDTAVYYCASAIFGVVITSYWGQGTLVTVSS VL: not shown | 1.03 | 1.41 | 2.1
